The source of these data is patent US20100221179A1.

The Kd is the concentration at which binding is half-saturated.

Test [1] addresses T1, recombinant human IL-1α (human) (UniProt P01583).
T1 sequence: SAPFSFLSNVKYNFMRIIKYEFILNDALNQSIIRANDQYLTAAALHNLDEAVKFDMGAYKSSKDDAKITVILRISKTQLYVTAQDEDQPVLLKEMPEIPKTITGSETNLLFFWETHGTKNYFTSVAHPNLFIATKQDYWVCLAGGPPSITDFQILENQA
The experiment in a line: cell-based or functional assay.

In test [2] the target is T1, recombinant human IL-1α (human). The test is described as follows: SPR (Biacore), antibody captured, IL-1α in solution.

B1: humanized anti-human IL-1α antibody H3D12.8 (antibody, from a related filing, human IgG1, V domains shown)
VH: EIQLVQSGSELKKPGASVKVSCKASGYTFTNYGMNWVRQAPGQDLERMAWINTYTGESTYADDFKGRFVFSLDTSVSTAYLQISSLKAEDTAVYFCARGIYYYGSSYAMDYWGQGTTVTVSS
VL: DIQMTQSPSSLSASVGDRVTITCRASQDISNCLNWYQQKPGKTPKLLIYYTSRLHSGVPSRFSGSGSGTDYTFTISSLQPEDIATYFCQQGKTLPYAFGQGTKLEIK
B1: the Neutralization Potency (IC50, pM), MRC-5 bioassay (IL-8 production) in test [1] was found to be 1950 pM. Further, the Kd in test [2] was 1350 pM.

B2: humanized anti-human IL-1α antibody H3D12.16 (antibody, from a related filing, human IgG1, V domains shown)
VH: EIQLVQSGAEVKKPGASVKVSCKASGYTFTNYGMNWVRQAPGQDLERMAWINTYTGESTYADDFKGRFTFTLDTSTSTAYMELSSLRSEDTAVYFCARGIYYYGSSYAMDYWGQGTTVTVSS
VL: DIQMTQSPSSLSASVGDRVTITCRASQDISNCLNWYQQKPGKTPKLLIYYTSRLHSGVPSRFSGSGSGTDYTFTISSLQPEDIATYFCQQGKTLPYAFGQGTKLEIK
As to B2, the Neutralization Potency (IC50, pM), MRC-5 bioassay (IL-8 production) in test [1] amounted to 1360 pM. Moreover, the Kd in test [2] amounted to 2090 pM.

B3: humanized anti-human IL-1α antibody H3D12.r16 (antibody, from a related filing, human IgG1, V domains shown)
VH: EVQLVQSGAEVKKPGASVKVSCKASGYTFKYYGMNWVRQAPGQGLERMGWINTYTGQSTYADDFKGRVTFTLDTSTSTAYMELSSLRSEDTAVYYCARDIYYYGSDFAMDYWGQGTTVTVSS
VL: DIQMTQSPSSLSASVGDRVTITCRASQDISNMLNWYQQKPGKAPKLLIYYTSRLKPGVPSRFSGSGSGTDYTFTISSLQPEDIATYFCQQGKTAPYTFGQGTKLEIK
For B3, the Neutralization Potency (IC50, pM), MRC-5 bioassay (IL-8 production) in test [1] is 0.6 pM. In addition, the dissociation constant Kd in test [2] came out at 31 pM.

B4: humanized anti-human IL-1α antibody H3D12.r37 (antibody, from a related filing, human IgG1, V domains shown)
VH: EIQLVQSGAEVKKPGASVKVSCKASGYTFKYYGMNWVRQAPGQGLERMGWINTYTGESRYADDFKGRVTFTLDTSTSTAYMELSSLRSEDTAVYYCARDIYYFGSDYAMDYWGQGTTVTVSS
VL: DIQMTQSPSSLSASVGDRVTITCRASQDISNRLNWYQQKPGKAPKLLIYYASRLKPGVPSRFSGSGSGTDYTFTISSLQPEDIATYFCQQGNTPPYTFGQGTKLEIK
With B4, the Neutralization Potency (IC50, pM), MRC-5 bioassay (IL-8 production) in test [1] is 1.4 pM. In test [2], the Kd worked out at 28 pM.

B5: humanized anti-human IL-1α antibody H3D12.r10 (antibody, from a related filing, human IgG1, V domains shown)
VH: EIQLVQSGAEVKKPGASVKVSCKASGYTFAHYGMNWVRQAPGQGLEWMGWINTYTGQSTYADDFKGRFTFTLDTSTSTAYMELSSLRSEDTAVYYCARGIYYFGSNYAMDYWGQGTTVTVSS
VL: DIQMTQSPSSLSASVGDRVTITCRASQDISNMLNWYQQKPGKTPKLLIYYTSRLRSGVPSRFSGSGSGTDYTFTISSLQPEDIATYFCQQGKKPPYTFGQGTKLEIK
Regarding B5, in test [1], the Neutralization Potency (IC50, pM), MRC-5 bioassay (IL-8 production) came out at 0.6 pM. In test [2], the Kd turned out to be 32 pM.

B6: anti-human IL-1α monoclonal antibody 3D12 (antibody, from a related filing, V domains shown)
VH: QIQLVQSGPELKKPGETVKISCKASGYTFRNYGMNWVKQAPGKDLKRMAWINTYTGESTYADDFKGRFAFSLETSASTAYLQINNLKNEDTATYFCARGIYYYGSSYAMDYWGQGTSVTVSS
VL: IQMTQTTSSLSASLGDRVTISCRASQDISNCLNWYQQKPDGTVKLLIYYTSRLHSGVPSRFSGSGSGTDYSLTISNLEQEDIATYFCQQGKTLPYAFGGGTKLEINR
For the molecule B6, in test [1], the Neutralization Potency (IC50, pM), MRC-5 bioassay (IL-8 production) was found to be 1880 pM. The equilibrium dissociation constant (Kd) in test [2] is 1340 pM.
